# In patent US20260139061A1 (Novartis, published 2026):
# What was measured:
# [1] = biological target: T1, human EGFRvIII (epidermal growth factor receptor variant III), expressed on cells (human, UniProt P00533 25-1210); test: flow cytometry (FACS), purified His-tagged scFv on HEK293F cells transiently transfected with hEGFRvIII
# T1 construct: whole, on cells; also called hEGFRvIII; hEGFRvII
# Procedure: HEK293F suspension cells were transiently transfected with either wild type hEGFR or hEGFRvII and were harvested 2 days after transfection. Approximately 5e5 cells/per well were transferred to a BD Falcon 96 well plate. The cells were spun down at 900 rpm (Sorval Legend XT centrifuge) for 3 minutes. The supernatant was removed. Anti-EGFRvII scFv protein samples were diluted in DPBS with 5% FBS. The samples were added into the wells, mixed and incubated for 1 hour. The cells were washed twice in the DPBS with 5% FBS. The cells were incubated with anti-poly His PE (R&D) for 1 hour, washed twice before FACS analysis (LSRII from BD Biosciences).
# [2] = biological target: T2, EGFRvIII-Fc fusion protein (UniProt P00533 25-645); test: flow cytometry, Jurkat E6 cells electroporated with the CAR vector, stained with different concentrations of Fc fusion protein and PE anti-human IgG Fc
# T2 construct: Soluble reagent used at different concentrations to stain CAR-transfected Jurkat cells; not shown: Fc part; detected with PE anti-human IgG Fc
# Procedure: Jurkat E6 cells were electroporated with either CAR9 vector or CAR10 vector using Amaxa Cell Line Nucleofector Kit V (Lonza, Colgne AG, Germany) and program X-001. One day after the transfection, 0.5×10⁶ cells were placed into each well of a V-shape 96 well plate (Greiner Bio-One, Germany) in 0.2 ml FACS buffer (DPBS buffer containing 5% FBS) and incubated for 10 minutes at room temperature. Cells were then spun down and resuspended in 0.2 ml of the FACS buffer with different concentrations of EGFRvIII-Fc or EGFRwt-Fc and incubated at 4° C. for 30 minutes. Cells were then washed with FACS buffer three times, and incubated with 0.2 ml of the FACS buffer with 2 μl of PE anti-human IgG Fc (Jackson ImmunoResearch Laboratories, West Grove, PA) for 30 minutes at 4° C. in the dark. After washing with 0.2 ml of FACS buffer three times, cells were analyzed on a LSRII (BD Biosciences, San Jose, CA) machine using the FACSDiva software (BD Biosciences, San Jose, CA). Immunofluorescence staining was analyzed as the relative log fluorescence of live cells, and the percentage of the PE positive cells were measured.
binding result [1],fold lower binding compared to CAR9 [2] [fold],Binder
binds,–,"CAR 3 - Soluble scFv (scFv, Soluble His-tagged humanized scFv; also called humanized EGFRvIII scFv variant, VH5-VK2, 4G4S) scFv: EIQLVQSGAEVKKPGESLRISCKGSGFNIEDYYIHWVRQMPGKGLEWMGRIDPENDETKYGPIFQGHVTISADTSINTVYLQWSSLKASDTAMYYCAFRGGVYWGQGTTVTVSSGGGGSGGGGSGGGGSGGGGSDVVMTQSPLSLPVTLGQPASISCKSSQSLLDSDGKTYLNWLQQRPGQSPRRLISLVSKLDSGVPDRFSGSGSGTDFTLKISRVEAEDVGVYYCWQGTHFPGTFGGGTKVEIKGSHHHHHHHH"
binds,–,"CAR2 - Soluble scFv (scFv, Soluble His-tagged humanized scFv; also called humanized EGFRvIII scFv variant, VK4-VH1, 4G4S) scFv: DVVMTQSPDSLAVSLGERATINCKSSQSLLDSDGKTYLNWLQQKPGQPPKRLISLVSKLDSGVPDRFSGSGSGTDFTLTISSLQAEDVAVYYCWQGTHFPGTFGGGTKVEIKGGGGSGGGGSGGGGSGGGGSEIQLVQSGAEVKKPGATVKISCKGSGFNIEDYYIHWVQQAPGKGLEWMGRIDPENDETKYGPIFQGRVTITADTSTNTVYMELSSLRSEDTAVYYCAFRGGVYWGQGTTVTVSSGSHHHHHHHH"
binds,–,"CAR5 - Soluble scFv (scFv, Soluble His-tagged humanized scFv; also called humanized EGFRvIII scFv variant, VH1-VK2, 4G4S) scFv: EIQLVQSGAEVKKPGATVKISCKGSGFNIEDYYIHWVQQAPGKGLEWMGRIDPENDETKYGPIFQGRVTITADTSTNTVYMELSSLRSEDTAVYYCAFRGGVYWGQGTTVTVSSGGGGSGGGGSGGGGSGGGGSDVVMTQSPLSLPVTLGQPASISCKSSQSLLDSDGKTYLNWLQQRPGQSPRRLISLVSKLDSGVPDRFSGSGSGTDFTLKISRVEAEDVGVYYCWQGTHFPGTFGGGTKVEIKGSHHHHHHHH"
binds,–,"CAR8 - Soluble scFv (scFv, Soluble His-tagged humanized scFv; also called humanized EGFRvIII scFv variant, VK2-VH1, 4G4S) scFv: DVVMTQSPLSLPVTLGQPASISCKSSQSLLDSDGKTYLNWLQQRPGQSPRRLISLVSKLDSGVPDRFSGSGSGTDFTLKISRVEAEDVGVYYCWQGTHFPGTFGGGTKVEIKGGGGSGGGGSGGGGSGGGGSEIQLVQSGAEVKKPGATVKISCKGSGFNIEDYYIHWVQQAPGKGLEWMGRIDPENDETKYGPIFQGRVTITADTSTNTVYMELSSLRSEDTAVYYCAFRGGVYWGQGTTVTVSSGSHHHHHHHH"

# Further lines, the binder ahead of its results:
Binder,binding result [1],fold lower binding compared to CAR9 [2] [fold]
"CAR4 - Soluble scFv (scFv, Soluble His-tagged humanized scFv; also called humanized EGFRvIII scFv variant, VK2-VH5, 4G4S) scFv: DVVMTQSPLSLPVTLGQPASISCKSSQSLLDSDGKTYLNWLQQRPGQSPRRLISLVSKLDSGVPDRFSGSGSGTDFTLKISRVEAEDVGVYYCWQGTHFPGTFGGGTKVEIKGGGGSGGGGSGGGGSGGGGSEIQLVQSGAEVKKPGESLRISCKGSGFNIEDYYIHWVRQMPGKGLEWMGRIDPENDETKYGPIFQGHVTISADTSINTVYLQWSSLKASDTAMYYCAFRGGVYWGQGTTVTVSSGSHHHHHHHH",binds,–
"CAR1 Soluble scFv (scFv, Soluble His-tagged humanized scFv; also called humanized EGFRvIII scFv variant, VH1-VK4, 4G4S) scFv: EIQLVQSGAEVKKPGATVKISCKGSGFNIEDYYIHWVQQAPGKGLEWMGRIDPENDETKYGPIFQGRVTITADTSTNTVYMELSSLRSEDTAVYYCAFRGGVYWGQGTTVTVSSGGGGSGGGGSGGGGSGGGGSDVVMTQSPDSLAVSLGERATINCKSSQSLLDSDGKTYLNWLQQKPGQPPKRLISLVSKLDSGVPDRFSGSGSGTDFTLTISSLQAEDVAVYYCWQGTHFPGTFGGGTKVEIKGSHHHHHHHH",binds,–
"CAR10 (Anti-EGFRvIII clone 139), full CAR on cells (other, Chimeric antigen receptor (139 scFv, CD8 hinge and TM, 4-1BB, CD3 zeta) on Jurkat, JNL or primary human T cells; also called human CAR10) DIQMTQSPSSLSASVGDRVTITCRASQGIRNNLAWYQQKPGKAPKRLIYAASNLQSGVPSRFTGSGSGTEFTLIVSSLQPEDFATYYCLQHHSYPLTSGGGTKVEIKRTGSTSGSGKPGSGEGSEVQVLESGGGLVQPGGSLRLSCAASGFTFSSYAMSWVRQAPGKGLEWVSAISGSGGSTNYADSVKGRFTISRDNSKNTLYLQMNSLRAEDTAVYYCAGSSGWSEYWGQGTLVTVSSTTTPAPRPPTPAPTIASQPLSLRPEACRPAAGGAVHTRGLDFACDIYIWAPLAGTCGVLLLSLVITLYCKRGRKKLLYIFKQPFMRPVQTTQEEDGCSCRFPEEEEGGCELRVKFSRSADAPAYKQGQNQLYNELNLGRREEYDVLDKRRGRDPEMGGKPRRKNPQEGLYNELQKDKMAEAYSEIGMKGERRRGKGHDGLYQGLSTATKDTYDALHMQALPPR",–,~40
